Results reported in paper PMC7231451.

Tests used:
[1] = biological target: associated or linker proteins (plasma proteins of the approximately 320 kDa complex); assay: SEC
[2] = biological target: Complement C3 (purified, native) (UniProt P01024); assay: flow cytometry on coated beads
[3] = biological target: Complement C3 (purified, native) (UniProt P01024); assay: pull-down

percent of AAT in the complex [1] [%]	fluorescence intensity of binding (h-AAT vs r-AAT) [2] [AU]	Western blot densitometry of bound AAT (C3-coated beads vs control beads) [3] [AU]	Substance
13			Alpha-1 antitrypsin (from UniProt P01009 25-418) (natural protein)
	1.5	2.7	plasma purified human AAT (natural protein)
